From US20230192896A1 (BIOVERATIV THERAPEUTICS, published 2023) come the findings set out here.

B1: BIIB-12-930 (antibody, V domains shown)
VH: QVQLVQSGAEVKKPGASVKVSCKASGYTFTSYYMHWVRQAPGQGLEWMGIINPSGGSTSYAQKFQGRVTMTRDTSTSTVYMELSSLRSEDTAVYYCARVRQKATLLFQHWGQGTLVTVSS
VL: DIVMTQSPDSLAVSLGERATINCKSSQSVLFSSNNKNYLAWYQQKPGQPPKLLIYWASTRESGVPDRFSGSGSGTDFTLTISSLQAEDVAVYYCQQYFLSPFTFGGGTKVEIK
notes: IgG
B2: BIIB-12-1291 (antibody, V domains shown)
VH: QVQLVQSGAEVKKPGASVKVSCKASGYTFTSYYMHWVRQAPGQGLEWMGIINPSGGSTSYAQKFQGRVTMTRDTSTSTVYMELSSLRSEDTAVYYCARSRRMWVGYFDLWGRGTLVTVSS
VL: EIVLTQSPATLSLSPGERATLSCRASQSVSSYLAWYQQKPGQAPRLLIYDASNRATGIPARFSGSGSGTDFTLTISSLEPEDFAVYYCQQRLNLPLTFGGGTKVEIK
notes: IgG
B3: BIIB-12-934 (antibody, V domains shown)
VH: QVQLVESGGGVVQPGRSLRLSCAASGFTFSSYGMHWVRQAPGKGLEWVAVISYDGSNKYYADSVKGRFTISRDNSKNTLYLQMNSLRAEDTAVYYCARESGGHSYGMDVWGQGTTVTVSS
VL: EIVLTQSPATLSVSPGERATLSCRASQSVSSNLAWYQQKPGQAPRLLIYGASTRATGIPARFSGSGSGTEFTLTISSLQSEDFAVYYCQQFNDHPITFGGGTKVEI
notes: IgG
B4: BIIB-12-929 (antibody, V domains shown)
VH: QVQLVQSGAEVKKPGASVKVSCKASGYTFTSYYMHWVRQAPGQGLEWMGIINPSGGSTSYAQKFQGRVTMTRDTSTSTVYMELSSLRSEDTAVYYCARDQGYSRSFDIWGQGTMVTVSS
VL: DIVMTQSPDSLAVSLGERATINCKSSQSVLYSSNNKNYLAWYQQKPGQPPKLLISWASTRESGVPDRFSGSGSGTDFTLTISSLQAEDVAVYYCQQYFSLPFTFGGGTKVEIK
notes: IgG
B5: BIIB-12-933 (antibody, V domains shown)
VH: QVQLVESGGGVVQPGRSLRLSCAASGFTFSSYGMHWVRQAPGKGLEWVAVISYDGSNKYYADSVKGRFTISRDNSKNTLYLQMNSLRAEDTAVYYCARLPRFTGTAYWGQGTLVTVSS
VL: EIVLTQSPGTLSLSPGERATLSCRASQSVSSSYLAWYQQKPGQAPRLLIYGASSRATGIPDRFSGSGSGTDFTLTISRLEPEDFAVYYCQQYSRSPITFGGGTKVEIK
notes: IgG
B6: BIIB-12-1298 (antibody, V domains shown)
VH: QVQLVESGGGVVQPGRSLRLSCAASGFTFSSYGMHWVRQAPGKGLEWVAVISYDGSNKYYADSVKGRFTISRDNSKNTLYLQMNSLRAEDTAVYYCAKGGSDRRVGSWGQGTLVTVSS
VL: DIQMTQSPSSVSASVGDRVTITCRASQGISSWLAWYQQKPGKAPKLLIYAASSLQSGVPSRFSGSGSGTDFTLTISSLQPEDFATYYCQQTNSLPITFGGGTKVEIK
notes: IgG
B7: BIIB-12-1316 (antibody, V domains shown)
VH: QVQLVESGGGVVQPGRSLRLSCAASGFTFSSYGMHWVRQAPGKGLEWVAVISYDGSNKYYADSVKGRFTISRDNSKNTLYLQMNSLRAEDTAVYYCAKSGQYRAFDIWGQGTMVTVSS
VL: DIQMTQSPSSVSASVGDRVTITCRASQGISSWLAWYQQKPGKAPKLLIYAASSLQSGVPSRFSGSGSGTDFTLTISSLQPEDFATYYCQQINNFPPTFGGGTKVEIK
notes: IgG
B8: BIIB-12-1297 (antibody, V domains shown)
VH: QVQLVESGGGVVQPGRSLRLSCAASGFTFSSYGMHWVRQAPGKGLEWVAVISYDGSNKYYADSVKGRFTISRDNSKNTLYLQMNSLRAEDTAVYYCARSGGQTHRRSMDVWGQGTTVTVSS
VL: EIVLTQSPATLSLSPGERATLSCRASQSVSRYLAWYQQKPGQAPRLLIYDASNRATGIPARFSGSGSGTDFTLTISSLEPEDFAVYYCQQGNNWPPTFGGGTKVEIK
notes: IgG
B9: BIIB-12-1303 (antibody, V domains shown)
VH: QVQLVESGGGVVQPGRSLRLSCAASGFTFSSYGMHWVRQAPGKGLEWVAVISYDGSNKYYADSVKGRFTISRDNSKNTLYLQMNSLRAEDTAVYYCARGPTSRLFQHWGQGTLVTVS
VL: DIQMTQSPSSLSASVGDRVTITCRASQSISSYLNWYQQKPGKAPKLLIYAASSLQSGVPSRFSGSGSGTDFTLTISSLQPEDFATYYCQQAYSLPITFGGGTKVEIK
notes: IgG
B10: BIIB-12-926 (antibody, V domains shown)
VH: QVQLVQSGAEVKKPGASVKVSCKASGYTFTSYYMHWVRQAPGQGLEWMGIINPSGGSTSYAQKFQGRVTMTRDTSTSTVYMELSSLRSEDTAVYYCARDGRMARGASPDYWGQGTLVTVSS
VL: EIVMTQSPATLSVSPGERATLSCRASQSVSSNLAWYQQKPGQAPRLLIYGASTRATGIPARFSGSGSGTEFTLTISSLQSEDFAVYYCQQHSFWPPTFGGGTKVEIK
notes: IgG
B11: BIIB-12-927 (antibody, V domains shown)
VH: QVQLVQSGAEVKKPGASVKVSCKASGYTFTSYYMSWVRQAPGQGLEWMGIINPSGGSTSYAQKFQGRVTMTRDTSTSTVYMELSSLRSEDTAVYYCARDSGRKRYYYMDVWGKGTTVTVSS
VL: EIVMTQSPATLSVSPGERATLSCRASQSVSSNLAWYQQKPGQAPRLLIYGASTRATGIPARFSGSGSGTEFTLTISSLQSEDFAVYYCQQFNLWPFTFGGGTKVEIK
notes: IgG
B12: BIIB-12-936 (antibody, V domains shown)
VH: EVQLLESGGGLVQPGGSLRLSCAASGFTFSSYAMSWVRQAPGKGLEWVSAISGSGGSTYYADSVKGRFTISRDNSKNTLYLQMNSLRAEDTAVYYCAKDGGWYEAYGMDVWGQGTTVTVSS
VL: EIVMTQSPATLSVSPGERATLSCRASQSVSSNLAWYQQKPGQAPRLLIYGASTRATGIPARFSGSGSGTEFTLTISSLQSEDFAVYYCQQSHNLPPTFGGGTKVEIK
notes: IgG
B13: BIIB-12-1304 (antibody, V domains shown)
VH: QVQLVESGGGVVQPGRSLRLSCAASGFTFSSYGMHWVRQAPGKGLEWVAVISYDGSNKYYADSVKGRFTISRDNSKNTLYLQMNSLRAEDTAVYYCAKGPGSRRFDIWGQGTMVTVSS
VL: EIVMTQSPATLSVSPGERATLSCRASQSVSSNLAWYQQKPGQAPRLLIYGASTRATGIPARFSGSGSGTEFTLTISSLQSEDFAVYYCQQANVLPLTFGGGTKVEIK
notes: IgG
B14: BIIB-12-931 (antibody, V domains shown)
VH: QVQLVQSGAEVKKPGASVKVSCKASGYTFTSYYMSWVRQAPGQGLEWMGIINPSGGSTSYAQKFQGRVTMTRDTSTSTVYMELSSLRSEDTAVYYCARDPVQEYGPYYYYMDVWGKGTTVTVSS
VL: EIVMTQSPATLSVSPGERATLSCRASQSVSSNLAWYQQKPGQAPRLLIYGASTRATGIPARFSGSGSGTEFTLTISSLQSEDFAVYYCQQAAYWPWTFGGGTKVEIK
notes: IgG
B15: BIIB-12-1301 (antibody, V domains shown)
VH: QVQLVESGGGVVQPGRSLRLSCAASGFTFSSYGMHWVRQAPGKGLEWVAVISYDGSNKYYADSVKGRFTISRDNSKNTLYLQMNSLRAEDTAVYYCARTGNYGRGMPYWGQGTLVTVSS
VL: EIVLTQSPATLSLSPGERATLSCRASQSVSSYLAWYQQKPGQAPRLLIYDASKRATGIPARFSGSGSGTDFTLTISSLEPEDFAVYYCQQSSSWPPTFGGGTKVEIK
notes: IgG
B16: BIIB-12-1292 (antibody, V domains shown)
VH: QVQLVQSGAEVKKPGASVKVSCKASGYTFTSYYIHWVRQAPGQGLEWMGIINPSGGSTSYAQKFQGRVTMTRDTSTSTVYMELSSLRSEDTAVYYCARDPGRRQSSGFDYWGQGTLVTVSS
VL: EIVMTQSPATLSLSPGERATLSCRASQSVSSYLAWYQQKPGQAPRLLIYDSSNRATGIPARFSGSGSGTDFTLTISSLEPEDFAVYYCQQRLNFPFTFGGGTKVEIK
notes: IgG
B17: BIIB-12-1302 (antibody, V domains shown)
VH: QVQLVQSGAEVKKPGASVKVSCKASGYTFTNYGISWVRQAPGQGLEWMGWISAYNGNTNYAQKLQGRVTMTTDTSTSTAYMELRSLRSDDTAVYYCARARSDWRAFDIWGQGTMVTVSS
VL: EIVMTQSPATLSVSPGERATLSCRASQSVSSNLAWYQQKPGQAPRLLIYGASTRATGIPARFSGSGSGTEFTLTISSLQSEDFAVYYCQQVNNLPLTFGGGTKVEIK
notes: IgG
B18: BIIB-12-937 (antibody, V domains shown)
VH: QVQLVQSGAEVKKPGASVKVSCKASGYTFTSYYMHWVRQAPGQGLEWMGIINPSGGSTSYAQKFQGRVTMTRDTSTSTVYMELSSLRSEDTAVYYCARPTRMLRSYGMDVWGQGTTVTVSS
VL: not shown
notes: IgG
B19: BIIB-12-1288 (antibody, V domains shown)
VH: QVQLVQSGAEVKKPGASVKVSCKASGYTFTSYYMHWVRQAPGQGLEWMGIINPSGGSTSYAQKFQGRVTMTRDTSTSTVYMELSSLRSEDTAVYYCARGGANDYGSSSRWWYFDLWGRGTLVTVSS
VL: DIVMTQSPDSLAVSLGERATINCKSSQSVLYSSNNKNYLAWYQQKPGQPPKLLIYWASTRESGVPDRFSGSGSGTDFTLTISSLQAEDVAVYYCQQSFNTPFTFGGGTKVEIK
notes: IgG
B20: BIIB-12-1295 (antibody, V domains shown)
VH: QVQLVQSGAEVKKPGASVKVSCKASGYTFTSYYMVWVRQAPGQGLEWMGIINPSGGSTSYAQKFQGRVTMTRDTSTSTVYMELSSLRSEDTAVYYCARVGGATTGKIGYGMDVWGQGTTVTVSS
VL: DIQMTQSPSSVSASVGDRVTITCRASQGISSWLAWYQQKPGKAPKLLIYAASNLQSGVPSRFSGSGSGTDFTLTISSLQPEDFATYYCQQAISLPITFGGGTKVEIK
notes: IgG
B21: BIIB-12-1306 (antibody, V domains shown)
VH: QVQLQESGPGLVKPSQTLSLTCTVSGGSISSGGYYWSWIRQHPGKGLEWIGSIYYSGSTYYNPSLKSRVTISVDTSKNQFSLKLSSVTAADTAVYYCARGAGGSAPWGQGTLVTVSS
VL: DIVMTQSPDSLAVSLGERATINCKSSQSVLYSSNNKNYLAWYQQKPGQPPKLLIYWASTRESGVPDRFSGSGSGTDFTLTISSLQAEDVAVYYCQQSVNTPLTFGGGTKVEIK
notes: IgG
B22: BIIB-12-932 (antibody, V domains shown)
VH: QVQLVESGGGVVQPGRSLRLSCAASGFTFSSYGMHWVRQAPGKGLEWVAVISYDGSNKYYADSVKGRFTISRDNSKNTLYLQMNSLRAEDTAVYYCARLGYRGASAFDIWGQGTMVTVSS
VL: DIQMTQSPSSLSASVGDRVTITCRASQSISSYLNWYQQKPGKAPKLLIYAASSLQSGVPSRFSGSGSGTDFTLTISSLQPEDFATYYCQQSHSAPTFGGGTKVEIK
notes: IgG
B23: BIIB-12-935 (antibody, V domains shown)
VH: QVQLVESGGGVVQPGRSLRLSCAASGFTFSSYGMHWVRQAPGKGLEWVAVISYDGSNKYYADSVKGRFTISRDNSKNTLYLQMNSLRAEDTAVYYCARELEYGHYGMDVWGQGTTVTVSS
VL: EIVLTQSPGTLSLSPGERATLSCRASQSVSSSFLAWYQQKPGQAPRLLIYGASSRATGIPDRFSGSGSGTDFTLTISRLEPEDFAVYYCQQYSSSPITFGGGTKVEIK
notes: IgG
B24: BIIB-12-1305 (antibody, V domains shown)
VH: QVQLVESGGGVVQPGRSLRLSCAASGFTFSSYGMHWVRQAPGKGLEWVAVISYDGSNKYYADSVKGRFTISRDNSKNTLYLQMNSLRAEDTAVYYCAKLGGRWSSDFQHWGQGTLVTVSS
VL: EIVLTQSPATLSLSPGERATLSCRASQSVSSYLAWYQQKPGQAPRLLIYDASNRATGIPARFSGSGSGTDFTLTISSLEPEDFAVYYCQQSANWPPTFGGGTKVEIK
notes: IgG
B25: BIIB-12-1289 (antibody, V domains shown)
VH: QVQLVQSGAEVKKPGASVKVSCKASGYTFTSYYMHWVRQAPGQGLEWMGIINPGGGSTSYAQKFQGRVTMTRDTSTSTVYMELSSLRSEDTAVYYCARGPPRTYATGSHNWFDPWGQGTLVTVSS
VL: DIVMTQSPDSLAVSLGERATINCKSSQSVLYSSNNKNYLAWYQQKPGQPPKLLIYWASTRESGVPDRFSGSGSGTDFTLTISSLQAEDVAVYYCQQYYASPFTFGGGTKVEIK
notes: IgG

In this assay the target is T1, non-activatable Factor X (FXn) (Homo sapiens (Human), UniProt P00742 41-488, single biotin on the C-terminal BioTag).
T1 construct: also called BIIB-FX-015
The assay is described as follows: BLI; class meaning: paragraph 285.
As for B1, the binding result is “binds”. B2: the binding result is on record as “binds”. For the molecule B3, the binding result is “binds”.

For the molecule B4, the binding result is “binds”.

For the molecule B5, the binding result is reported as “binds”. Take B6: the binding result was “binds”. On to B7, for which the binding result is given as “binds”. As to B8, the binding result is reported as “binds”. Consider B9, for which the binding result is listed as “binds”. Turning to B10, the binding result is on record as “binds”. In the case of B11 it was “binds”. Turning to B12, the binding result is recorded as “binds”.

For B13, the binding result is reported as “binds”. B14: the binding result is reported as “binds”. In the case of B15, the binding result is “binds”. As for B16, the entry is “binds”; as for B17, “binds”; as for B18, “binds”. Take B19: the binding result is “binds”.

Take B20: the binding result is “binds”. Turning to B21, the binding result is given as “binds”. In the case of B22, the binding result is reported as “binds”.

For B23, the binding result was “binds”. Regarding B24, the binding result is listed as “binds”.

Take B25: the binding result was “binds”.
